# Test results taken from patent US8034904B2, “Anti-IGF-I receptor antibody” (Immunogen Inc., priority 2002, dated 2011).
# B1: EM164: murine anti-IGF-I receptor monoclonal antibody, IgG1 with kappa light chain, hybridoma ATCC PTA-4457; heavy SEQ ID NO:7, light SEQ ID NO:8 (antibody)
# heavy: QVQLQQSGAELVKPGASVKLSCKASGYTFTSYWMHWVKQRPGQGLEWIGEINPSNGRTNYNEKFKRKATLTVDKSSSTAYMQLSSLTSEDSAVYYFARGRPDYYGSSKWYFDVWGAGTTVTVSS
# light: DVLMTQTPLSLPVSLGDQASISCRSSQSIVHSNVNTYLEWYLQKPGQSPKLLIYKVSNRFSGVPDRFSGSGSGTDFTLRISRVEAEDLGIYYCFQGSHVPPTFGGGTKLEIKR
# modifications: antibody heavy chain; antibody light chain
# How the values were obtained:
# [1] = biological target: T1, IGF-I receptor of 3T3 cells (Mus musculus, UniProt Q60751); assay: Immunoprecipitation of IGF-I receptor from 3T3 cells; type: binding
# T1 construct: endogenous in cells; host or cells: 3T3 cells (mouse)
# Text: (§1) A Western blot of the EM164 antibody immunoprecipitate was detected using a rabbit polyclonal anti-IGF-I receptor beta chain (C-terminus) antibody (Santa Cruz Biotechnology) and a goat-anti-rabbit-IgG-antibody-horseradish peroxidase conjugate, followed by washes and enhanced chemiluminescence (ECL) detection.
# MCF-7 cells = assay: Growth inhibition of MCF-7 cells by counting cells; type: cell-based, human; conditions: 10 μg/mL EM164
# Description: The growth inhibition of MCF-7 cells by EM164 antibody was measured by counting cells. Thus, in a 12-well plate, about 7500 cells were plated in RPMI medium with 10% FBS, in the presence or absence of 10 μg/mL EM164 antibody. After 5 days of growth, the cell count for the untreated control sample was 20.5×10^4 cells, in contrast to a cell count of only 1.7×10^4 cells for the EM164 antibody-treated sample.
# [2] = test system: IGF-I receptor of CHO cells; assay: Immunoprecipitation of IGF-I receptor from CHO cells; type: binding; conditions: CHO cells (Chinese hamster)
# Text: as §1
# HT-29 colon cancer cells = assay: Growth and survival of HT-29 cells (MTT assay, colony formation); type: cell-based, human
# Description: (§2) Several human tumor cell lines were tested in serum-free conditions for their growth and survival response to IGF-I. These cell lines were treated with EM164 antibody in the presence of IGF-I, IGF-II, or serum, and their growth and survival responses were measured using an MTT assay after 2-4 days. Approximately 1500 cells were plated in a 96-well plate in regular medium with serum, which was replaced with serum-free medium the following day (either serum-free RPMI medium supplemented with transferrin and BSA, or phenol-red free medium as specified by Dufourny, B. et al., 1997, J. Biol. Chem., 272, 31163-31171). After one day of growth in serum-free medium, the cells were incubated with about 75 μL of 10 μg/mL antibody for 30 min.-3 h, followed by the addition of 25 μL of IGF-I (or IGF-II or serum) solution to obtain a final concentration of 10 ng/mL IGF-I, or 20 ng/mL IGF-II, or 0.04-10% serum. In some experiments, the cells were stimulated first with IGF-I for 15 min before the addition of EM164 antibody, or both IGF-I and EM164 antibody were added together. The cells were then allowed to grow for another 2-3 days. A solution of MTT (3-(4,5)-dimethylthiazol-2-yl)-2,5-diphenyltetrazolium bromide; 25 μL of a 5 mg/mL solution in PBS) was then added and the cells were returned to the incubator for 2-3 h. The medium was then removed and replaced by 100 μL DMSO, mixed, and the absorbance of the plate was measured at 545 nm.
# [3] = test system: IGF-I receptor from cos-7 cells; assay: Immunoprecipitation of IGF-I receptor from cos-7 cells; type: binding; conditions: cos-7 cells (African green monkey)
# Text: as §1
# IGF-I receptor = biological target: T2, IGF-I receptor (Homo sapiens, UniProt P08069); assay: IGF-I-stimulated autophosphorylation of IGF-I receptor in MCF-7 cells (ELISA); type: cell-based; conditions: 20 μg/mL antibody 3 h; 50 ng/mL IGF-I 20 min
# T2 construct: human breast cancer MCF-7 cells, which expressed IGF-I receptor; endogenous in cells; host or cells: MCF-7 human breast cancer cells
# Description: In FIG. 4, the MCF-7 cells were grown in a 12-well plate in regular medium for 3 days, and were then treated with 20 μg/mL EM164 antibody (or anti-B4 control antibody) in serum-free medium for 3 h, followed by stimulation with 50 ng/mL IGF-I for 20 min at 37° C. The cells were then lysed in ice-cold lysis buffer containing protease and phosphatase inhibitors (50 mM HEPES buffer, pH 7.4, 1% NP-40, 1 mM sodium orthovanadate, 100 mM sodium fluoride, 10 mM sodium pyrophosphate, 2.5 mM EDTA, 10 μM leupeptin, 5 μM pepstatin, 1 mM PMSF, 5 mM benzamidine, and 5 μg/mL aprotinin). An ELISA plate was pre-coated with anti-IGF-I receptor beta chain C-terminus monoclonal antibody TC123 and was incubated with the lysate samples for 5 h at ambient temperature to capture IGF-I receptor. The wells containing the captured IGF-I receptor were then washed and incubated with biotinylated anti-phosphotyrosine antibody (PY20; 0.25 μg/mL; BD Transduction Laboratories) for 30 min, followed by washes and incubation with streptavidin-horseradish peroxidase conjugate (0.8 μg/mL) for 30 min. The wells were washed and detected with ABTS/H2O2 substrate.
# SK-Mel-37 cells = assay: Growth and survival of SK-Mel-37 cells (MTT assay); type: cell-based, human; conditions: 5-10 μg/mL EM164, 10 ng/mL IGF-I
# Description: as §2, with “A solution of MTT (3-(4,5)-dimethylthiazol-2-yl)-2,5-diphenyltetrazolium bromide; 25 μL of a 5 mg/mL solution in PBS) was then added and the cells were returned to the incubator for 2-3 h.” left out
# T1 sequence (Q60751 31-1373): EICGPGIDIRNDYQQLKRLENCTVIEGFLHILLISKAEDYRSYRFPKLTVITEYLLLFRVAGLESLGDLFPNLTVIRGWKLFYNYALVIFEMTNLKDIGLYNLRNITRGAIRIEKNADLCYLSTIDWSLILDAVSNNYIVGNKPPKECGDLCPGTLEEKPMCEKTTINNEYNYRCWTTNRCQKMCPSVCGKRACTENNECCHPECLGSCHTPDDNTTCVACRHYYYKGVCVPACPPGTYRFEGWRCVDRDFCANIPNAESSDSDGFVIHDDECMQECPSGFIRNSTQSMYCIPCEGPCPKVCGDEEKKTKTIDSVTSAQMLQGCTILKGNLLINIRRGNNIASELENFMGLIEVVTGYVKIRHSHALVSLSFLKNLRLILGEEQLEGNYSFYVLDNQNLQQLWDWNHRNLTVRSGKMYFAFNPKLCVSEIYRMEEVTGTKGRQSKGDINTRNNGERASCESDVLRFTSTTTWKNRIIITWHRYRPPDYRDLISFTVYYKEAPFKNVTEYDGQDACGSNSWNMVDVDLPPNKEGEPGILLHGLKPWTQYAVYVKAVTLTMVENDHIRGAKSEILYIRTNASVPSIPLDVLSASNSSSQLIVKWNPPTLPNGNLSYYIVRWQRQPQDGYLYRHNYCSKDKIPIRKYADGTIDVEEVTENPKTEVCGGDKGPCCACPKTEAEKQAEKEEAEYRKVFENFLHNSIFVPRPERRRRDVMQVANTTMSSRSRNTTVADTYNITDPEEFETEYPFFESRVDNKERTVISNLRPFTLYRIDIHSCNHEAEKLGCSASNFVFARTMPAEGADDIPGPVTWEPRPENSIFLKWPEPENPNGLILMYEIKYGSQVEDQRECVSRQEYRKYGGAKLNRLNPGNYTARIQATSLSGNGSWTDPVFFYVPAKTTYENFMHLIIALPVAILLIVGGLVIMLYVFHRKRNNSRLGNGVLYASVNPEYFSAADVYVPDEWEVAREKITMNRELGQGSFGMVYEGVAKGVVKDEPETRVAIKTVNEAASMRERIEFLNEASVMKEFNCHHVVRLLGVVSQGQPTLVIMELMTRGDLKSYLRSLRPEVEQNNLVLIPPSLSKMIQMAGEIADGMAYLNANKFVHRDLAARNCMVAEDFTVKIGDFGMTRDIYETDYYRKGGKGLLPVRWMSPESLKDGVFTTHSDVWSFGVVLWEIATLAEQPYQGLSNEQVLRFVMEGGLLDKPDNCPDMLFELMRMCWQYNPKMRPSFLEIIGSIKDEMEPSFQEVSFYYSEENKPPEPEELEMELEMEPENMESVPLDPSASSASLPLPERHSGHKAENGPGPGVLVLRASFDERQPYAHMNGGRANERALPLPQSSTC
molecule,measurement,setting,value
B1,binding to IGF-I receptor (immunoprecipitation),[1],did not bind
same,cell count after 5 days of growth,"MCF-7 cells; RPMI with 10% FBS, about 7500 cells plated, untreated control 20.5×10^4 cells",1.7×10^4 cells
same,inhibition of growth of MCF-7 cells,"MCF-7 cells; in 5 days, 10% FBS",about 12 fold
same,binding to IGF-I receptor (immunoprecipitation),[2],did not bind
same,colony size of HT29 colon cancer cells,HT-29 colon cancer cells,greatly reduced
same,Inhibition by EM164 antibody of IGF-I-stimulated growth in serum-free medium,"HT-29 colon cancer cells; HT-29, 5-10 μg/mL EM164, 10 ng/mL IGF-I",60%
same,% Inhibition by EM164 antibody of Growth/survival of cells in 1.25-10% serum,"HT-29 colon cancer cells; HT-29, 5-10 μg/mL EM164, MTT or colony formation assay",Yes
same,binding to IGF-I receptor (immunoprecipitation),[3],also bound
same,inhibition of the IGF-I stimulated autophosphorylation of IGF-I receptor,IGF-I receptor,complete inhibition
same,Inhibition by EM164 antibody of IGF-I-stimulated growth in serum-free medium,SK-Mel-37 cells,85%
